How the values were obtained:
[1] = target: T1, human mesothelin (recombinant, soluble) (human, UniProt Q13421 296-598); test: SPR BIAcore, captured mAb, mesothelin analyte
[2] = target: T1, human mesothelin (recombinant, soluble); test: SPR BIAcore, parental mAb captured, mesothelin analyte
[3] = target: human mesothelin expressed on cells (human, UniProt Q13421 37-598); test: cell-based or functional assay
[4] = target: T2, human mesothelin (recombinant, soluble) (human, UniProt Q13421 296-598, limits assumed); test: SPR BIAcore T-100, captured mAb, mesothelin 0.16-100 nM, single-cycle kinetics
T2 construct: Analyte in BIAcore, coat in ELISA (CHO-MT40 mesothelin), biotinylated on Octet tips; also called MSLN; CHO-MT40 mesothelin
T2 sequence (Q13421 other isoform, or with tags, fused parts or gaps limits assumed): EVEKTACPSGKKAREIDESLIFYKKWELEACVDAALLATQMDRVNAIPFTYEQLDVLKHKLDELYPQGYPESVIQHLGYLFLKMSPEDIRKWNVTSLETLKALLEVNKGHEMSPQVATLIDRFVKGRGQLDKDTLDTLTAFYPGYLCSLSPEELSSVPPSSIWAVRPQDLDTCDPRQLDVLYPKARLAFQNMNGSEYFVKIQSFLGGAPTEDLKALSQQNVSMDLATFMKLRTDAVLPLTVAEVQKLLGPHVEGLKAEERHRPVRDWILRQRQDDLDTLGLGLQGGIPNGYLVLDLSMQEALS
Description: (§1) Binding affinity: Binding measurements were performed in HBS-P+ buffer on a BIAcore T-100 instrument. Antibodies were diluted to 1 μg/mL in HBS-P+. Samples were centrifuged at 14,000×g for 5 min at room temperature and then supernatants were transferred to a new 1.5 mL BIAcore tube and capped. […] Anti-human antibody capture chip was prepared according to the manufacturer's protocol using a CMS chip with immobilization wizard. Final capture antibody levels were 8000-9000RU, in HBS-P+.
(§2) Antibodies were captured on flow cells 2-4 by sequential injections of individual ligand solutions for 90 sec at 10 μL/min. Analyte injection was done in a single-cycle kinetics manner by sequential injections of analyte solutions from low to high concentration for 240 sec each at 30 μL/min. Detection was 2-1, 3-1, 4-1. Double-referencing was performed by a sequence of identical ligand capture injections, followed by 5 buffer-only injections for 240 sec each, dissociation for 1800 sec, and regeneration as above. All ligands were analyzed for binding to mesothelin in duplicate. Kinetic analysis was performed using BIAEvaluations software using a 1:1 Langmuir fitting model. On-rate, off-rate, and affinity constants were averaged from duplicate runs.

rat mesothelin = target: T3, rat mesothelin (rat, UniProt Q9ERA7 298-600, limits assumed); test: SPR BIAcore, captured mAb, mesothelin analyte
T3 sequence (looked up): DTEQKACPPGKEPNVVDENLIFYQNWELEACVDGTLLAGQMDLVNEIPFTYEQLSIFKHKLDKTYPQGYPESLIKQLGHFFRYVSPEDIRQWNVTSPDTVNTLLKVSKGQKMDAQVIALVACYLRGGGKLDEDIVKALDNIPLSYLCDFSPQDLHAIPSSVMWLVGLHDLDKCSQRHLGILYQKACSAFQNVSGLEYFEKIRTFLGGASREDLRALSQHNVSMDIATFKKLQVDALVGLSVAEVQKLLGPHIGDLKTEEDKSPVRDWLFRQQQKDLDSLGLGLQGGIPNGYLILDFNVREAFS
Description: as §1, §2

[5] = target: T2, human mesothelin (recombinant, soluble); test: SPR BIAcore, run 4
Description: as §2, with “Anti-mesothelin antibody binding affinity to mesothelin was measured by BIAcore (BIAcore T-100, GE healthcare, #1426075), using a series S CMS chip. Antibody concentrations were adjusted to 1 μg/mL and mesothelin (50 μg) to 100 nM in 1×HBS-P+ buffer (GE Healthcare). Anti-human antibody capture chip was prepared according to the manufacturer's protocol using a CMS chip with immobilization wizard. Final capture antibody levels were 8000-9000 RU, in HBS-P+. Chip was prepared for assay with five cycles of 300 sec buffer injection followed by 30 sec regeneration, all at 30 μL/min across all four flow cells. Antibodies” for “Antibodies”

[6] = target: T2, human mesothelin (recombinant, soluble); test: SPR BIAcore, affinity against anetumab as reference
Description: as §1, §2

[7] = target: cynomolgus monkey mesothelin (cynomolgus monkey); test: SPR BIAcore T-100, captured mAb, mesothelin analyte, single-cycle kinetics
Description: as §1, §2

T1 sequence (Q13421 other isoform, or with tags, fused parts or gaps): as the sequence (Q13421 other isoform, or with tags, fused parts or gaps limits assumed) above
human mesothelin expressed on cells, sequence (Q13421 other isoform, or with tags, fused parts or gaps): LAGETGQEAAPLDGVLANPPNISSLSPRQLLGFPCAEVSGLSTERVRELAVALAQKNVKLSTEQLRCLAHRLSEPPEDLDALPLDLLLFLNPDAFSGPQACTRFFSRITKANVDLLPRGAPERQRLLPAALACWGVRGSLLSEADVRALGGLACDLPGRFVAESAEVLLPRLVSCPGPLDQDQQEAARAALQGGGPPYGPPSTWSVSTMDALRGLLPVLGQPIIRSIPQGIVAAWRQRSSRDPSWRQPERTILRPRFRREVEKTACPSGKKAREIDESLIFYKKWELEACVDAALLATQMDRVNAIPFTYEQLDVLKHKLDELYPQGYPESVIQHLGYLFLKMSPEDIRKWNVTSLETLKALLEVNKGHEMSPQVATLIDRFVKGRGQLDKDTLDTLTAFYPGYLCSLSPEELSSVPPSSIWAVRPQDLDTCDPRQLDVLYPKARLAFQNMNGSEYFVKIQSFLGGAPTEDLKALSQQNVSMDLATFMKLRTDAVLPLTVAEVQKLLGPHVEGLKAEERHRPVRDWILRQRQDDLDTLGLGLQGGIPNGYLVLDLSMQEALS

Binder	Kd [1] [nM]	koff [1] [s⁻¹]	kon [1] [M⁻¹ s⁻¹]	Kd [2] [nM]	koff [2] [s⁻¹]	kon [2] [M⁻¹ s⁻¹]	also measured
237N18 (rabbit-human chimeric anti-human mesothelin antibody) (antibody, V domains shown) VH: QSLEESGGRLVAPGTPLTLTCTVSGFSLSSYHMSWVRQAPGEGLEWIGGITAMSRTYYASWAKGRFTISKTSTTVHLKITSPTTEDTATYFCAREPGFVSNIWGPGTLVTVSL VL: AVVLTQTASPVSGVVGGTVTIKCQASQNIYSNLAWYQQKPGQRPKLLMYDASTLASGVPSRFKGSGSGTQFTLTISDLECADAATYYCQSISSVDNNVFGGGTEVVVK	3.38	0.00428	1.27e+06	–	–	–	–
201C15 zu (humanized, CDR-grafted HC1-LC1) (antibody, V domains shown) VH: QVQLVESGGGLVQPGGSLRLSCSASGIDLSSYAMGWVRQAPGKGLEYIGTINIGGRVYYASWAKGRFTISRDNSKNTLYLQMNSLRAEDTAVYYCARYYNGGSYDIWGQGTLVTVSS VL: DIQMTQSPSTLSASVGDRVTITCQASESIYRVLAWYQQKPGKAPKLLIYDTSTLASGVPSRFSGSGSGTEFTLTISSLQCDDAATYYCQGGYYADSYGIAFGGGTKVEIKR	–	–	–	4.2	0.0011	310000	–
BAY 94-9343 (anetumab ravtansine) (antibody, human IgG1, lambda, V domains shown, SPDB-DM4 on lysines, DAR 3.7 for the whole antibody, positions not given) VH: QVELVQSGAEVKKPGESLKISCKGSGYSFTSYWIGWVRQAPGKGLEWMGIIDPGDSRTRYSPSFQGQVTISADKSISTAYLQWSSLKASDTAMYYCARGQLYGGTYMDGWGQGTLVTVSS VL: DIALTQPASVSGSPGQSITISCTGTSSDIGGYNSVSWYQQHPGKAPKLMIYGVNNRPSGVSNRFSGSKSGNTASLTISGLQAEDEADYYCSSYDIESATPVFGGGTKLTVLG	–	–	–	–	–	–	EC50 (read off the curve): % killing of NCI-N87 cells, BAY 94-9343 alone [3]: ~0.8 nM; EC50 (read off the curve): % killing of NCI-N87 cells, BAY 94-9343 with 3 uM unconjugated anetumab [3]: ~0.8 nM
anetumab (antibody, human IgG1, lambda, V domains shown) VH: QVELVQSGAEVKKPGESLKISCKGSGYSFTSYWIGWVRQAPGKGLEWMGIIDPGDSRTRYSPSFQGQVTISADKSISTAYLQWSSLKASDTAMYYCARGQLYGGTYMDGWGQGTLVTVSS VL: DIALTQPASVSGSPGQSITISCTGTSSDIGGYNSVSWYQQHPGKAPKLMIYGVNNRPSGVSNRFSGSKSGNTASLTISGLQAEDEADYYCSSYDIESATPVFGGGTKLTVLG	–	–	–	–	–	–	Kd [4]: 7.26 nM; koff [4]: 0.00112 s⁻¹; kon [4]: 168000 M⁻¹ s⁻¹; binding result (rat mesothelin): no binding (tested: 100 nM highest analyte concentration)
346C6 zu (humanized, CDR-grafted HC1-LC1) (antibody, V domains shown) VH: EVQLVESGGGLVQPGGSLRLSCAASGFSLSSYAMIWVRQAPGKGLEWIGTISTGGITYYASWAKGRFTISRDNSKNTLYLQMNSLRAEDTAVYYCARGGYAASSAYYLPYYFDLWGQGTLVTVSS VL: DIQMTQSPSSLSASVGDRVTITCQSSQSVYNNNNLAWYQQKPGKVPKLLIYLASTLASGVPSRFSGSGSGTDFTLTISSLQCEDAATYYCLGGCDDDADTFAFGGGTKVEIKR	–	–	–	8.9	0.093	1.33e+07	–
111B10 zu (humanized, CDR-grafted HC1-LC1) (antibody, V domains shown) VH: EVQLVESGGGLVQPGGSLRLSCAASGFSLNNYAMSWVRQAPGKGLEWIGSISTGGLAFYANWAKGRFTISRDNSKNTLYLQMNSLRAEDTAVYYCARNGGGSYIFYYFDLWGQGTLVTVSS VL: DIQMTQSPSSLSASVGDRVTITCQASQSISSYLSWYQQKPGKAPKLLIYSASTLASGVPSRFSGSGSGTDFTLTISSLQCEDAATYYCQSYYDIGTSTFGGGTKVEIKR	–	–	–	6.5	0.003	510000	–
Xi-383I18(AuF) (antibody, V domains shown) VH: SQSVEESGGRLVTPGTPLTLTCTVSGFSLSSYAMGWVRQAPGEGLEWIGTISTGGITYYASWAKGRFTISKTSTTVDLKITSPTTEDTATYFCARVGSSGYLFYFFNLWGQGTLVTVSS VL: VFELTQTPSPVSAAVGGTVTIRCQASQNIKSYLAWYQQKPGQPPKLLIYEASILASGVSSRFKGSGSGTEFTLTISDLECADAATYYCQSYYAASSNAFGGGTEVVVK	0.28	0.000281	1.01e+06	–	–	–	–
33O11 (rabbit-human chimeric anti-human mesothelin antibody) (antibody, V domains shown) VH: QSVEESGGRLVTPGTPLTLTCTVSGISLSSDAISWVRQAPGKGLEYIGIINGGGNTYYASWAKGRFTISKTSTTVDLKITSPTTEDTATYFCARGIQHGGGNSDYYYYGMDLWGPGTLVTVSS VL: EVLMTQTPSSVSAAVGDTVTIKCQASQSISSVLSWYQQKPGQPPKLLIYLASTLASGVPSRFSGSRSGTEFTLTISDLECDDAATYYCQTNYGTSSSNYGFAFGGGTEVVVK	0.335	0.000668	1.99e+06	–	–	–	–
345A12-HC15-LC4 (antibody, human IgG1, kappa, V domains shown, Humanized rabbit antibody, human IgG1/kappa, unpaired Cys80 in the light chain; also called zu345A12-HC15-LC4) VH: QVQLVESGGGVVQPGRSLRLSCAASGIDLSSYAMSWVRQAPGKGLEWIGVIDISGNRFYADWVKGRFTISRDNSKNTLYLQMSSLRAEDTAVYYCARVDSRAWGPFNLWGQGTLVTVSS VL: DYQMTQSPSSLSASVGDRVTITCQASQSIFSYLAWYQQKPGKAPKLLIYDASDLASGVPSRFSGSGSGTDFTLTISSLQCEDAATYYCQQGYTRSDVDNAFGGGTKVEIKR	–	–	–	–	–	–	Kd [5]: 0.0779 nM; koff [5]: 0.000112 s⁻¹; kon [5]: 1.44e+06 M⁻¹ s⁻¹; fold higher affinity than anetumab [6]: 40 fold; Kd [4]: 0.195 nM; koff [4]: 0.000285 s⁻¹; kon [4]: 1.46e+06 M⁻¹ s⁻¹; Kd [7]: 88.6 nM; koff [7]: 0.000751 s⁻¹; kon [7]: 10500 M⁻¹ s⁻¹; binding result (rat mesothelin): no binding (tested: 100 nM highest analyte concentration)

Source: patent US20210238304A1 (EISAI R AND D MANAGEMENT, published 2021)
